± gives the standard deviation of the averaged measurements.
Assay: total protein half-life in vivo (active degradation + dilution); higher = more stable protein
[1] = E. coli NCM3722 delta-clpP delta-lon delta-hslV, growth: N-lim chemostat, doubling time 6 h
[2] = E. coli NCM3722 delta-clpP, growth: N-lim chemostat, doubling time 6 h
[3] = E. coli NCM3722 delta-hslV, growth: N-lim chemostat, doubling time 6 h
[4] = E. coli NCM3722 delta-lon, growth: N-lim chemostat, doubling time 6 h
[5] = E. coli NCM3722 delta-smpB, growth: N-lim chemostat, doubling time 6 h
[6] = wild type E. coli NCM3722, growth: C-lim chemostat, doubling time 3 h
[7] = wild type E. coli NCM3722, growth: C-lim chemostat, doubling time 6 h
[8] = wild type E. coli NCM3722, growth: C-lim chemostat, doubling time 12 h
[9] = wild type E. coli NCM3722, growth: N-lim chemostat, doubling time 6 h
[10] = wild type E. coli NCM3722, growth: N-lim chemostat, doubling time 12 h
[11] = wild type E. coli NCM3722, growth: P-lim chemostat, doubling time 6 h
[12] = wild type E. coli NCM3722, growth: P-lim chemostat, doubling time 12 h

| Sequence | total protein half-life in vivo [1] | total protein half-life in vivo [2] | total protein half-life in vivo [3] | total protein half-life in vivo [4] | total protein half-life in vivo [5] | total protein half-life in vivo [6] | total protein half-life in vivo [7] | total protein half-life in vivo [8] | total protein half-life in vivo [9] | total protein half-life in vivo [10] | total protein half-life in vivo [11] | total protein half-life in vivo [12] |
| --- | --- | --- | --- | --- | --- | --- | --- | --- | --- | --- | --- | --- |
| MIAEFESRILALIDGMVDHASDDELFASGYLRGHLTLAIAELESGDDHSAQAVHTTVSQSLEKAIGAGELSPRDQALVTDMWENLFQQASQQ | 4.91 ± 0.31 h | 3.35 ± 0.41 h | 2.9 ± 0.23 h | 3.81 ± 0.062 h | 2.1 ± 0.046 h | 2.2 ± 0.23 h | 3.39 ± 0.1 h | 4.87 ± 0.25 h | 2.71 ± 0.54 h | 3.79 h | 2.75 ± 0.83 h | 4.58 ± 0.62 h |
| MIAITGATGQLGHYVIESLMKTVPASQIVAIVRNPAKAQALAAQGITVRQADYGDEAALTSALQGVEKLLLISSSEVGQRAPQHRNVINAAKAAGVKFIAYTSLLHADTSPLGLADEHIETEKMLADSGIVYTLLRNGWYSENYLASAPAALEHGVFIGAAGDGKIASATRADYAAAAARVISEAGHEGKVYELAGDSAWTLTQLAAELTKQSGKQVTYQNLSEADFAAALKSVGLPDGLADMLADSDVGASKGGLFDDSKTLSKLIGHPTTTLAESVSHLFNVNN | 5.42 ± 0.13 h | 4.93 ± 0.067 h | 4.99 ± 0.61 h | 5.3 ± 0.25 h | 4.569 ± 0.035 h | 3.2 ± 0.18 h | 5.84 ± 0.31 h | 8.9 ± 2 h | 5.15 ± 0.28 h | 8.33 h | 6.72 ± 0.65 h | 13.1 ± 1.4 h |
| MICRFIDTHCHFDFPPFSGDEEASLQRAAQAGVGKIIVPATEAENFARVLALAENYQPLYAALGLHPGMLEKHSDVSLEQLQQALERRPAKVVAVGEIGLDLFGDDPQFERQQWLLDEQLKLAKRYDLPVILHSRRTHDKLAMHLKRHDLPRTGVVHGFSGSLQQAERFVQLGYKIGVGGTITYPRASKTRDVIAKLPLASLLLETDAPDMPLNGFQGQPNRPEQAARVFAVLCELRREPADEIAQALLNNTYTLFNVP | 5.92 ± 0.41 h | 4.26 ± 0.21 h | 4.72 ± 0.12 h | 6.38 ± 1.4 h | 4.45 ± 0.36 h | 3.12 ± 0.34 h | > 8 h | 9.45 ± 4.5 h | 4.57 ± 0.41 h | 8.41 ± 1.9 h |  | 12.3 ± 0.15 h |
| MIDPKKIEQIARQVHESMPKGIREFGEDVEKKIRQTLQAQLTRLDLVSREEFDVQTQVLLRTREKLALLEQRISELENRSTEIKKQPDPETLPPTL |  | 6.97 ± 0.85 h | 6.5 ± 1.2 h | 5.8 ± 0.65 h | 5.79 ± 0.91 h | 3.5 ± 0.19 h | 5.53 ± 0.24 h |  | 4.27 ± 0.63 h | 11.5 ± 5.3 h | 4.66 ± 1.2 h | 10.8 ± 0.66 h |
| MIDVLGPEKRRRRTTQEKIAIVQQSFEPGMTVSLVARQHGVAASQLFLWRKQYQEGSLTAVAAGEQVVPASELAAAMKQIKELQRLLGKKTMENELLKEAVEYGRAKKWIAHAPLLPGDGE [P0CF42] | 2.54 ± 0.27 h |  |  |  |  | 0.121 h |  | 1.26 h | 0.716 h | 1.37 h |  |  |
| MIEFDNLTYLHGKPQGTGLLKANPEDFVVVEDLGFEPDGEGEHILVRILKNGCNTRFVADALAKFLKIHAREVSFAGQKDKHAVTEQWLCARVPGKEMPDLSAFQLEGCQVLEYARHKRKLRLGALKGNAFTLVLREVSNRDDVEQRLIDICVKGVPNYFGAQRFGIGGSNLQGAQRWAQTNTPVRDRNKRSFWLSAARSALFNQIVAERLKKADVNQVVDGDALQLAGRGSWFVATTEELAELQRRVNDKELMITAALPGSGEWGTQREALAFEQAAVAAETELQALLVREKVEAARRAMLLYPQQLSWNWWDDVTVEIRFWLPAGSFATSVVRELINTTGDYAHIAE | 5.52 ± 0.077 h | 5.85 ± 0.93 h | 5.53 ± 0.64 h | 6.03 ± 0.79 h | 5.8 ± 0.21 h | 3.11 ± 0.11 h | 5.78 ± 0.067 h | 12.8 ± 1.1 h | 4.93 ± 0.21 h | 9.75 ± 0.26 h | 5.99 ± 0.14 h | 12.6 ± 0.88 h |
| MIEKLRNIAIIAHVDHGKTTLVDKLLQQSGTFDSRAETQERVMDSNDLEKERGITILAKNTAIKWNDYRINIVDTPGHADFGGEVERVMSMVDSVLLVVDAFDGPMPQTRFVTKKAFAYGLKPIVVINKVDRPGARPDWVVDQVFDLFVNLDATDEQLDFPIVYASALNGIAGLDHEDMAEDMTPLYQAIVDHVPAPDVDLDGPFQMQISQLDYNSYVGVIGIGRIKRGKVKPNQQVTIIDSEGKTRNAKVGKVLGHLGLERIETDLAEAGDIVAITGLGELNISDTVCDTQNVEALPALSVDEPTVSMFFCVNTSPFCGKEGKFVTSRQILDRLNKELVHNVALRVEETEDADAFRVSGRGELHLSVLIENMRREGFELAVSRPKVIFREIDGRKQEPYENVTLDVEEQHQGSVMQALGERKGDLKNMNPDGKGRVRLDYVIPSRGLIGFRSEFMTMTSGTGLLYSTFSHYDDVRPGEVGQRQNGVLISNGQGKAVAFALFGLQDRGKLFLGHGAEVYEGQIIGIHSRSNDLTVNCLTGKKLTNMRASGTDEAVVLVPPIRMTLEQALEFIDDDELVEVTPTSIRIRKRHLTENDRRRANRAPKDD | 5.32 ± 0.47 h | 4.79 ± 0.39 h | 4.54 ± 0.41 h | 5.61 ± 0.38 h | 4.62 ± 0.21 h | 2.899 ± 0.022 h | 5.8018 ± 0.005 h | 9.75 ± 0.82 h | 4.387 ± 0.029 h | 6.89 ± 0.16 h | 5.58 ± 0.15 h | 10.9 ± 0.83 h |
